Measured values reported in article PMC3176292, “Mutations in Protein-Binding Hot-Spots on the Hub Protein Smad3 Differentially Affect Its Protein Interactions and Smad3-Regulated Gene Expression” (PLoS ONE, 2011).

Assays:
[1] = molecular target: T1, Flag-Smad3, full length (UniProt P84022 1-425); experiment: co-IP; LUMIER: Renilla luciferase-Smad3 and Flag-tagged partner co-expressed with constitutively active Alk5 in HEK-293; Flag protein captured from cleared lysate (TNE: 10 mM Tris-HCl pH 7.8, 150 mM NaCl, 1 mM EDTA, 1% Igepal CA-630) on anti-Flag 96-well plates, 2 h at 4 °C; co-precipitated Renilla luciferase activity, TrxGA background subtracted, percent of wild-type Smad3; details: partners not purified
T1 construct: Smad3; plasmid pCMV5-Flag-Smad3 (from J. Massagué); bait for Smad3-Smad3 association; also called Smad3 FL; source: HEK-293, transfected together with constitutively active Alk5, in lysate

[2] = molecular target: T2, Flag-SkiW274E, full length (UniProt P12755 1-728, W274E); experiment: as above; details: partners not purified
T2 construct: plasmid pCMV5b-Flag-SkiW274E (from K. Luo); also called SkiW274E FL; SKI274E; source: HEK-293, transfected, in lysate
T2 sequence (looked up): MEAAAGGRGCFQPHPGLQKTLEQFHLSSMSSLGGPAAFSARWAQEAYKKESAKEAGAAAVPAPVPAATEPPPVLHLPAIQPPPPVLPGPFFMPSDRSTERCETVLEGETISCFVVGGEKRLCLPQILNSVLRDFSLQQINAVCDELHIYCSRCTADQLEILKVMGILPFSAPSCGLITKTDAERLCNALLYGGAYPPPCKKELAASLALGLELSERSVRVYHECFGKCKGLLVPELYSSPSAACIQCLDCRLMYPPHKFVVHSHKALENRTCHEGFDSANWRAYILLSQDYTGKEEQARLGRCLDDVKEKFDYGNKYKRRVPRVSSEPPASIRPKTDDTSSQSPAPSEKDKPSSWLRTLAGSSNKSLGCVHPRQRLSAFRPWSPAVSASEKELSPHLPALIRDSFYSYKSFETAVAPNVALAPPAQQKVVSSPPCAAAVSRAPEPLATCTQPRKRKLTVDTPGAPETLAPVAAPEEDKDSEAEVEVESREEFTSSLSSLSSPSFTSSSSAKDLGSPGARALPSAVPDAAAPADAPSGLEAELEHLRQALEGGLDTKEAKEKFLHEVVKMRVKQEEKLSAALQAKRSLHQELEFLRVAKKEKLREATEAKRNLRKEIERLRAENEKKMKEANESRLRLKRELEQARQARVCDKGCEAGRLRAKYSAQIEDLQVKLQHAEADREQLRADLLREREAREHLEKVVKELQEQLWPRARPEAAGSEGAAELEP

percent binding relative to wild-type Smad3 [1]: 28%
percent binding relative to wild-type Smad3 [2]: 53%
B1: Renilla luciferase-Smad3 Y384A (natural protein, UniProt P84022 1-425, looked up)
chain: MSSILPFTPPIVKRLLGWKKGEQNGQEEKWCEKAVKSLVKKLKKTGQLDELEKAITTQNVNTKCITIPRSLDGRLQVSHRKGLPHVIYCRLWRWPDLHSHHELRAMELCEFAFNMKKDEVCVNPYHYQRVETPVLPPVLVPRHTEIPAEFPPLDDYSHSIPENTNFPAGIEPQSNIPETPPPGYLSEDGETSDHQMNHSMDAGSPNLSPNPMSPAHNNLDLQPVTYCEPAFWCSISYYELNQRVGETFHASQPSMTVDGFTDPSNSERFCLGLLSNVNRNAAVELTRRHIGRGVRLYYIGGEVFAECLSDSAIFVQSPNCNQRYGWHPATVCKIPPGCNLKIFNNQEFAALLAQSVNQGFEAVYQLTRMCTIRMSFVKGWGAEARRQTVTSTPCWIELHLNGPLQWLDKVLTQMGSPSIRCSSVS
notes: Smad3; source: HEK-293, transfected together with constitutively active Alk5, in lysate
